Holding throughout (details): both partners purified
In one test the target is T1, MCM3 (human) (human, UniProt P25205 1-808).
T1 construct: MCM3, human; stood in the assay as a subunit of m19
T1 sequence: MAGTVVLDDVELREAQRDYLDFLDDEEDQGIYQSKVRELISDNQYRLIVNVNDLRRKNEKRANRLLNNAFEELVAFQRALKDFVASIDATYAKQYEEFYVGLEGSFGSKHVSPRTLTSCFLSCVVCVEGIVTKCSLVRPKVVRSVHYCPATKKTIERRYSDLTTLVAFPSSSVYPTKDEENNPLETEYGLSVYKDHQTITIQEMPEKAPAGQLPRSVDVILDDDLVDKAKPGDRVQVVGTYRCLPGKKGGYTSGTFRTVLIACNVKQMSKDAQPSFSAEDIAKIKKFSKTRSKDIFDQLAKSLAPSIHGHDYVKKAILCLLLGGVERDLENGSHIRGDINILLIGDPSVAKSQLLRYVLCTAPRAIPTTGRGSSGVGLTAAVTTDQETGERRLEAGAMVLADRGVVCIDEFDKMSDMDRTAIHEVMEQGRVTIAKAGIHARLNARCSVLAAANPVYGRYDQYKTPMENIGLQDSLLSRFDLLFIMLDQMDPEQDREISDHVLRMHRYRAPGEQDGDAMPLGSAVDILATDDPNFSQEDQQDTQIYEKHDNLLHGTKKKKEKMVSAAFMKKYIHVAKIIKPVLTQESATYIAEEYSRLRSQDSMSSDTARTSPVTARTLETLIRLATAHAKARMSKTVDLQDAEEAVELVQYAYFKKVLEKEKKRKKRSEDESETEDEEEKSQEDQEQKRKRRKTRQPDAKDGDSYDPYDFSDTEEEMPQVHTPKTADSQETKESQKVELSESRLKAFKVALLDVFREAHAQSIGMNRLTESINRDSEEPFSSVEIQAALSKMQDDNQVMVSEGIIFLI
The test can be described thus: cryo-EM structure; human replisome: 150 nM CMG on fork DNA (60 nt or 15 nt 5′ flap) with 1.5-fold molar excess of AND-1, TIMELESS-TIPIN, CLASPIN and Pol α-primase; 25 mM HEPES-NaOH pH 7.6, 150 mM NaOAc, 0.5 mM TCEP, 500 μM AMP-PNP, 10 mM Mg(OAc)2, on ice; 10-30% glycerol gradient with glutaraldehyde and BS3 cross-linkers.

Test [1] addresses T2, Pol1 (budding yeast Pol α catalytic subunit) (S. cerevisiae, UniProt P13382 1-1468).
T2 construct: Pol1, S. cerevisiae; modelled: CTD 1271-1468 and CIP box F140-S149; stood in the assay as a subunit of m1; also called Pol1CTD; Pol1CIP; source: subunit of Pol α-primase from S. cerevisiae strain yAE95, purified as described previously
T2 sequence: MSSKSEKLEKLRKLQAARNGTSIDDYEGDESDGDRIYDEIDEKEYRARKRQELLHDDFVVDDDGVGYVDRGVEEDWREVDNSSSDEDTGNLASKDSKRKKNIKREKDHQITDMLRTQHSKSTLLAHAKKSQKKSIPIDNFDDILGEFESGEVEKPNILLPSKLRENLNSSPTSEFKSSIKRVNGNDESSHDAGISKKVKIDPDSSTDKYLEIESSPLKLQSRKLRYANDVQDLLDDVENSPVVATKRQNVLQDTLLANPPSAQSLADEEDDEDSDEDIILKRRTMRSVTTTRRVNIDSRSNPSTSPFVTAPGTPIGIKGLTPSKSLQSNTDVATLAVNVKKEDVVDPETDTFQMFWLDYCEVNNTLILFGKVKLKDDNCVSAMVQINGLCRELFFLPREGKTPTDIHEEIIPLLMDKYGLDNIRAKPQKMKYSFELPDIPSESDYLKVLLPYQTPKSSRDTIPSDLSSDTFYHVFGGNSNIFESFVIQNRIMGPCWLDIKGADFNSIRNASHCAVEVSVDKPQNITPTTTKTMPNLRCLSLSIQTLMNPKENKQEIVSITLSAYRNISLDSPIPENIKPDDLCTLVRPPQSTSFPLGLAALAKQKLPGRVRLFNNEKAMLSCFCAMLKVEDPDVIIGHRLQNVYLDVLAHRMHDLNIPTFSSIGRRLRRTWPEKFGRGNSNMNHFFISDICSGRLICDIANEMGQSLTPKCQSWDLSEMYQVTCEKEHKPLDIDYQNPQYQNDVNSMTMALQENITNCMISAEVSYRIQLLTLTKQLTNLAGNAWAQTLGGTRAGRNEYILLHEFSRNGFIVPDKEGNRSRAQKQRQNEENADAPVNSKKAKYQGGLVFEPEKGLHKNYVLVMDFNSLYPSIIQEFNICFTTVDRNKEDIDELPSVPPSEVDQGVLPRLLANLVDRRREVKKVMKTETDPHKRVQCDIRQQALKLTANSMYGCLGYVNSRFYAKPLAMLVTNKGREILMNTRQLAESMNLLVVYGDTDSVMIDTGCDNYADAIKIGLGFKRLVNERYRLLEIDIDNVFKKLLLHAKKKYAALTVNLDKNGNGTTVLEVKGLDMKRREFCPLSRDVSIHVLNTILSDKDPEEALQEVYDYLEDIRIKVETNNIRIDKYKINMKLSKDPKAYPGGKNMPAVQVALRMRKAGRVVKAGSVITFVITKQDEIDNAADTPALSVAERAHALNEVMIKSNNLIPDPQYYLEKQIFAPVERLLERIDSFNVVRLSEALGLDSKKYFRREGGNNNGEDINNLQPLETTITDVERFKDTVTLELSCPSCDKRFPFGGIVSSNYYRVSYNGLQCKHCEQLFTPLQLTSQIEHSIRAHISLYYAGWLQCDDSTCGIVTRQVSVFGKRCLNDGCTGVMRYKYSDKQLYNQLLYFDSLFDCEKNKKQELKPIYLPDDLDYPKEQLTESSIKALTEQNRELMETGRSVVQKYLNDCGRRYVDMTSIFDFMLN
The test is described as follows: cryo-EM structure; budding yeast replisome: 150 nM CMG on fork DNA (39 nt 3′ flap, 60 nt 5′ flap) with 1.5-fold molar excess of Tof1-Csm3, Mrc1 and Pol α-primase; 25 mM HEPES-NaOH pH 7.6, 150 mM NaOAc, 0.5 mM TCEP, 500 μM AMP-PNP, 10 mM Mg(OAc)2, on ice; 10-30% glycerol gradient with glutaraldehyde and BS3 cross-linkers.

A further test concerns the target T3, Mcm3 (budding yeast) (S. cerevisiae, UniProt P24279 1-971).
T3 construct: Mcm3, S. cerevisiae; stood in the assay as a subunit of m2; source: subunit of CMG from S. cerevisiae strain yJY197, purified as described previously
Described as above.

A further test addresses T4, Mcm5 (budding yeast) (S. cerevisiae, UniProt P29496 1-775).
T4 construct: Mcm5, S. cerevisiae; stood in the assay as a subunit of m2; also called Mcm5ZnF; source: subunit of CMG from S. cerevisiae strain yJY197, purified as described previously
T4 sequence: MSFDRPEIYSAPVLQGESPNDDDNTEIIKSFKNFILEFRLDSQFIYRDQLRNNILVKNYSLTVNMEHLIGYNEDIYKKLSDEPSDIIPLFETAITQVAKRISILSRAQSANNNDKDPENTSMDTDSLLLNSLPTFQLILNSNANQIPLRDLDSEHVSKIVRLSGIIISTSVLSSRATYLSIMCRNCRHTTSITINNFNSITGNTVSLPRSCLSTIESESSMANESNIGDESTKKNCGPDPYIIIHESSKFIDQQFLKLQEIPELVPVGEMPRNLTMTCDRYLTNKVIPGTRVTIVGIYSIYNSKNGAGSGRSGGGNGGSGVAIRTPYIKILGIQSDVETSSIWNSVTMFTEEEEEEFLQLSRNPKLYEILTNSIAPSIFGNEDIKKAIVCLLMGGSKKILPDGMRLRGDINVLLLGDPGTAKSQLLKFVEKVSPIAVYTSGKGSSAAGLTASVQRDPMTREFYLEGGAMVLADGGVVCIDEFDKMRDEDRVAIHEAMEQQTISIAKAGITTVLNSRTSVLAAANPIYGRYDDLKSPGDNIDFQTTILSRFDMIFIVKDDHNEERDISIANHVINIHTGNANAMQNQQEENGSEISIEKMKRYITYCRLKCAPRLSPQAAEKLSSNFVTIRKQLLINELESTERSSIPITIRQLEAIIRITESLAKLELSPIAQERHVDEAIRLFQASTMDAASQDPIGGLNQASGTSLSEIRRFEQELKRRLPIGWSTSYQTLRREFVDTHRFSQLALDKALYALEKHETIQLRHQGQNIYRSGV
The test is described as above.

T3 sequence (P24279 whole entry): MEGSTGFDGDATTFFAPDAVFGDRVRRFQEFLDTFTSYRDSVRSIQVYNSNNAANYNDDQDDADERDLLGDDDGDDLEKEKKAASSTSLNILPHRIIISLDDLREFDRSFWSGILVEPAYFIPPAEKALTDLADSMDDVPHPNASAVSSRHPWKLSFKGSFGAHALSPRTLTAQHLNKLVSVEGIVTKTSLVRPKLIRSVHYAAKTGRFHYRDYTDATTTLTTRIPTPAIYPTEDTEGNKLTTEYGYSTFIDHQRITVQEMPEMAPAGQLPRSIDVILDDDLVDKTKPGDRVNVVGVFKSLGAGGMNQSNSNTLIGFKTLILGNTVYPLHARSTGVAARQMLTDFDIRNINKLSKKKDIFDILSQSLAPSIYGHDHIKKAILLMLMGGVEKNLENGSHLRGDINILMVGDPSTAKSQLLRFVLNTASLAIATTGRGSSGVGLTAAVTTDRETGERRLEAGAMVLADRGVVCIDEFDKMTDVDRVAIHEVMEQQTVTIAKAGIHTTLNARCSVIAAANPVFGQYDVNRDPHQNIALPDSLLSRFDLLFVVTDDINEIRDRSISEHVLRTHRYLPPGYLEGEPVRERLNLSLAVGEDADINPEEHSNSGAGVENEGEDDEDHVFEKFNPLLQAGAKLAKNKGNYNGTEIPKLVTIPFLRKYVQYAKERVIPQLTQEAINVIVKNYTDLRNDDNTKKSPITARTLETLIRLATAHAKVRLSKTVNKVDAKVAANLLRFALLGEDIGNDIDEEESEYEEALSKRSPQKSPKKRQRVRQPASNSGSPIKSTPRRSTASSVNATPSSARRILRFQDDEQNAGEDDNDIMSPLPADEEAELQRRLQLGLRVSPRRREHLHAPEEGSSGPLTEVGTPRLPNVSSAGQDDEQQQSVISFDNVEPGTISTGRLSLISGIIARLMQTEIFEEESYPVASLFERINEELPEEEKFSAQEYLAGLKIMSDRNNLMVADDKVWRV

B1: PRIM2 (human primase accessory subunit) (natural protein)
chain: MEFSGRKWRKLRLAGDQRNASYPHCLQFYLQPPSENISLIEFENLAIDRVKLLKSVENLGVSYVKGTEQYQSKLESELRKLKFSYRENLEDEYEPRRRDHISHFILRLAYCQSEELRRWFIQQEMDLLRFRFSILPKDKIQDFLKDSQLQFEAISDEEKTLREQEIVASSPSLSGLKLGFESIYKIPFADALDLFRGRKVYLEDGFAYVPLKDIVAIILNEFRAKLSKALALTARSLPAVQSDERLQPLLNHLSHSYTGQDYSTQGNVGKISLDQIDLLSTKSFPPCMRQLHKALRENHHLRHGGRMQYGLFLKGIGLTLEQALQFWKQEFIKGKMDPDKFDKGYSYNIRHSFGKEGKRTDYTPFSCLKIILSNPPSQGDYHGCPFRHSDPELLKQKLQSYKISPGGISQILDLVKGTHYQVACQKYFEMIHNVDDCGFSLNHPNQFFCESQRILNGGKDIKKEPIQPETPQPKPSVQKTKDASSALASLNSSLEMDMEGLEDYFSEDS
notes: PRIM2, human; modelled residues 1-5 (N terminus) and 17-252 (NTD); stood in the assay as a subunit of m18; also called PRIM2NTD; PRIM2_(Nterm)
Regarding B1, the binding result with MCM3 (human) was “binds”.

B2: Pri2 (budding yeast primase accessory subunit) (natural protein, S. cerevisiae)
chain: MFRQSKRRIASRKNFSSYDDIVKSELDVGNTNAANQIILSSSSSEEEKKLYARLYESKLSFYDLPPQGEITLEQFEIWAIDRLKILLEIESCLSRNKSIKEIETIIKPQFQKLLPFNTESLEDRKKDYYSHFILRLCFCRSKELREKFVRAETFLFKIRFNMLTSTDQTKFVQSLDLPLLQFISNEEKAELSHQLYQTVSASLQFQLNLNEEHQRKQYFQQEKFIKLPFENVIELVGNRLVFLKDGYAYLPQFQQLNLLSNEFASKLNQELIKTYQYLPRLNEDDRLLPILNHLSSGYTIADFNQQKANQFSENVDDEINAQSVWSEEISSNYPLCIKNLMEGLKKNHHLRYYGRQQLSLFLKGIGLSADEALKFWSEAFTRNGNMTMEKFNKEYRYSFRHNYGLEGNRINYKPWDCHTILSKPRPGRGDYHGCPFRDWSHERLSAELRSMKLTQAQIISVLDSCQKGEYTIACTKVFEMTHNSASADLEIGEQTHIAHPNLYFERSRQLQKKQQKLEKEKLFNNGNH
notes: Pri2, S. cerevisiae; modelled residues 1-5 (N terminus), 44-177 and 181-299 (NTD); stood in the assay as a subunit of m1; also called Pri2NTD; Pri2_(Nterm); source: subunit of Pol α-primase from S. cerevisiae strain yAE95, purified as described previously
In the case of B2, the binding result (in test [1]; with Mcm3 (budding yeast); in the test with Mcm5 (budding yeast)) was “binds” in each case.

These data come from article PMC10501992, “How Pol α-primase is targeted to replisomes to prime eukaryotic DNA replication” (Molecular Cell, 2023).
